Measured values reported in patent US20090227489A1 (UNIVERSITY OF SOUTH FLORIDA A FLORIDA, published 2009).

Target: the molecule itself
Test: EMSA supershift, hSIE probe, nuclear extracts of Stat3β-transfected B16 cells
Text: EGF-induced Stat3 binding activity in NIH3T3 (lane 4) was used as a positive control. By supershift analysis with antibody that recognizes Stat3 but not Stat3β or antibody that recognizes Stat3β but not Stat3, it was shown that there were Stat3-Stat3 homodimers in mock-transfected B16 cells and empty vector-transfected B16 cells. Overexpression of Stat3β in Stat3β-transfected B16 cells results in mostly Stat3β-Stat3β homodimer formation.

B1: Stat3β, dominant-negative Stat3 variant (ectopic, from pIRES-Stat3β) (other)
chain: AQWNQLQQLDTRYLEQLHQLYSDSFPMELRQFLAPWIESQDWAYAASKESHATLVFHNLLGEIDQQYSRFLQESNVLYQHNLRRIKQFLQSRYLEKPMEIARIVARCLWEESRLLQTAATAAQQGGQANHPTAAVVTEKQQMLEQHLQDVRKRVQDLEQKMKVVENLQDDFDFNYKTLKSQGDMQDLNGNNQSVTRQKMQQLEQMLTALDQMRRSIVSELAGLLSAMEYVQKTLTDEELADWKRRQQIACIGGPPNICLDRLENWITSLAESQLQTRQQIKKLEELQQKVSYKGDPIVQHRPMLEERIVELFRNLMKSAFVVERQPCMPMHPDRPLVIKTGVQFTTKVRLLVKFPELNYQLKIKVCIDKDSGDVAALRGSRKFNILGTNTKVMNMEESNNGSLSAEFKHLTLREQRCGNGGRANCDASLIVTEELHLITFETEVYHQGLKIDLETHSLPVVVISNICQMPNAWASILWYNMLTNNPKNVNFFTKPPIGTWDQVAEVLSWQFSSTTKRGLSIEQLTTLAEKLLGPGVNYSGCQITWAKFCKENMAGKGFSFWVWLDNIIDLVKKYILALWNEGYIMGFISKERERAILSTKPPGTFLLRFSESSKEGGVTFTWVEKDISGKTQIQSVEPYTKQQLNNMSFAEIIMGYKIMDATNILVSPLVYLYPDIPKEEAFGKYCRPESQEHPEADPGAAPYLKTKFICVTFIDAVWK
notes: ID; NO:3; NO:4'; It was expressed in B16 cells from pIRES-Stat3β and assayed in nuclear extracts; also called Stat3beta; ST3β
binding result: binds
